The values that follow come from patent publication US20240360201A1 (BIOCYTOGEN PHARMACEUTICALS BEIJING, published 2024).

B1: PDL1-C40-6A7-FV3A3 (IgG1) (bispecific antibody)
heavy: EVQLLESGGGLVQPGGSLRLSCAASGFTFSSYIMMWVRQAPGKGLEWVSSIYPSGGITFYADTVKGRFTISRDNSKNTLYLQMNSLRAEDTAVYYCARIKLGTVTTVDYWGQGTLVTVSSASTKGPSVFPLAPSSKSTSGGTAALGCLVKDYFPEPVTVSWNSGALTSGVHTFPAVLQSSGLYSLSSVVTVPSSSLGTQTYICNVNHKPSNTKVDKKVEPKSCDKTHTCPPCPAPELLGGPSVFLFPPKPKDTLMISRTPEVTCVVVDVSHEDPEVKFNWYVDGVEVHNAKTKPREEQYNSTYRVVSVLTVLHQDWLNGKEYKCKVSNKALPAPIEKTISKAKGQPREPQVYTLPPSRDELTKGGGGSGGGGSDVVMTQSPLSLPVTLGQPASISCRSSQSLLHSNGNTYLHWYQQRPGQSPNHLIYQVSNRFSGVPDRFSGSGSGTDFTLKISRVEAEDVGVYFCSQTTHVPWTFGCGTKVEIKGGGGSGGGGSGGGGSGGGGSQVQLVQSGAEVKKPGASVKLSCKASGYTFISYYIYWVKQAPGQCLEWIGGINPRNGGTNFNEKFKSRATLTVDTSISTAYMELSRLRSEDTAVYYCTRHGNGVYWGQGTTLTVSSGGGGSGGGGSNQVSLTCLVKGFYPSDIAVEWESNGQPENNYKTTPPVLDSDGSFFLYSKLTVDKSRWQQGNVFSCSVMHEALHNHYTQKSLSLSPGK
light: QSALTQPASVSGSPGQSITISCTGTSSDVGGYNYVSWYQQHPGKAPKLMIYDVSNRPSGVSNRFSGSKSGNTASLTISGLQAEDEADYYCSSYTSSSTRVFGTGTKVTVLGQPKANPTVTLFPPSSEELQANKATLVCLISDFYPGAVTVAWKADGSPVKAGVETTKPSKQSNNKYAASSYLSLTPEQWKSHRSYSCQVTHEGSTVEKTVAPTECS
notes: IgG1; scFv inserted between EU 360 and 361
B2: PDL1-C40-6A7-FV3A (IgG1) (bispecific antibody)
heavy: EVQLLESGGGLVQPGGSLRLSCAASGFTFSSYIMMWVRQAPGKGLEWVSSIYPSGGITFYADTVKGRFTISRDNSKNTLYLQMNSLRAEDTAVYYCARIKLGTVTTVDYWGQGTLVTVSSASTKGPSVFPLAPSSKSTSGGTAALGCLVKDYFPEPVTVSWNSGALTSGVHTFPAVLQSSGLYSLSSVVTVPSSSLGTQTYICNVNHKPSNTKVDKKVEPKSCDKTHTCPPCPAPELLGGPSVFLFPPKPKDTLMISRTPEVTCVVVDVSHEDPEVKFNWYVDGVEVHNAKTKPREEQYNSTYRVVSVLTVLHQDWLNGKEYKCKVSNKALPAPIEKTISKAKGQPREPQVYTLPPSRDEGGGGSGGGGSDVVMTQSPLSLPVTLGQPASISCRSSQSLLHSNGNTYLHWYQQRPGQSPNHLIYQVSNRFSGVPDRFSGSGSGTDFTLKISRVEAEDVGVYFCSQTTHVPWTFGCGTKVEIKGGGGSGGGGSGGGGSGGGGSQVQLVQSGAEVKKPGASVKLSCKASGYTFISYYIYWVKQAPGQCLEWIGGINPRNGGTNFNEKFKSRATLTVDTSISTAYMELSRLRSEDTAVYYCTRHGNGVYWGQGTTLTVSSGGGGSGGGGSVSLTCLVKGFYPSDIAVEWESNGQPENNYKTTPPVLDSDGSFFLYSKLTVDKSRWQQGNVFSCSVMHEALHNHYTQKSLSLSPGK
light: QSALTQPASVSGSPGQSITISCTGTSSDVGGYNYVSWYQQHPGKAPKLMIYDVSNRPSGVSNRFSGSKSGNTASLTISGLQAEDEADYYCSSYTSSSTRVFGTGTKVTVLGQPKANPTVTLFPPSSEELQANKATLVCLISDFYPGAVTVAWKADGSPVKAGVETTKPSKQSNNKYAASSYLSLTPEQWKSHRSYSCQVTHEGSTVEKTVAPTECS
notes: IgG1; also called G3
B3: PDL1-C40-6A7-FV3C (IgG1) (bispecific antibody)
heavy: EVQLLESGGGLVQPGGSLRLSCAASGFTFSSYIMMWVRQAPGKGLEWVSSIYPSGGITFYADTVKGRFTISRDNSKNTLYLQMNSLRAEDTAVYYCARIKLGTVTTVDYWGQGTLVTVSSASTKGPSVFPLAPSSKSTSGGTAALGCLVKDYFPEPVTVSWNSGALTSGVHTFPAVLQSSGLYSLSSVVTVPSSSLGTQTYICNVNHKPSNTKVDKKVEPKSCDKTHTCPPCPAPELLGGPSVFLFPPKPKDTLMISRTPEVTCVVVDVSHEDPEVKFNWYVDGVEVHNAKTKPREEQYNSTYRVVSVLTVLHQDWLNGKEYKCKVSNKALPAPIEKTISKAKGQPREPQVYTLPPSRDELTKNQVSLTCLVKGFYPSDIAVEWESNGGGGSGGGGSDVVMTQSPLSLPVTLGQPASISCRSSQSLLHSNGNTYLHWYQQRPGQSPNHLIYQVSNRFSGVPDRFSGSGSGTDFTLKISRVEAEDVGVYFCSQTTHVPWTFGCGTKVEIKGGGGSGGGGSGGGGSGGGGSQVQLVQSGAEVKKPGASVKLSCKASGYTFISYYIYWVKQAPGQCLEWIGGINPRNGGTNFNEKFKSRATLTVDTSISTAYMELSRLRSEDTAVYYCTRHGNGVYWGQGTTLTVSSGGGGSGGGGSGQPENNYKTTPPVLDSDGSFFLYSKLTVDKSRWQQGNVFSCSVMHEALHNHYTQKSLSLSPGK
light: QSALTQPASVSGSPGQSITISCTGTSSDVGGYNYVSWYQQHPGKAPKLMIYDVSNRPSGVSNRFSGSKSGNTASLTISGLQAEDEADYYCSSYTSSSTRVFGTGTKVTVLGQPKANPTVTLFPPSSEELQANKATLVCLISDFYPGAVTVAWKADGSPVKAGVETTKPSKQSNNKYAASSYLSLTPEQWKSHRSYSCQVTHEGSTVEKTVAPTECS
notes: IgG1; scFv inserted between EU 384 and 385
B4: PD1-KN035-3A-IgG1 (bispecific antibody)
heavy: EVQLVESGGGLVQPGGSLRLSCAASGFTFSSYSMSWVRQAPGKRLEWVAHISSGGSSTYYPDTVKGRFTISRDNSKNTLYLQMNSLRAEDTAMYYCTRQFYYGSSFWYFDVWGAGTTVTVSSASTKGPSVFPLAPSSKSTSGGTAALGCLVKDYFPEPVTVSWNSGALTSGVHTFPAVLQSSGLYSLSSVVTVPSSSLGTQTYICNVNHKPSNTKVDKKVEPKSCDKTHTCPPCPAPELLGGPSVFLFPPKPKDTLMISRTPEVTCVVVDVSHEDPEVKFNWYVDGVEVHNAKTKPREEQYNSTYRVVSVLTVLHQDWLNGKEYKCKVSNKALPAPIEKTISKAKGQPREPQVYTLPPSREEGGGGSGGGGSQVQLVESGGGLVQPGGSLRLSCAASGFTFSRRCMAWFRQAPGKERERVAKLLTTSGSTYLADSVKGRFTISRDNSKNTVYLQMNSLRAEDTAVYYCAADSFEDPTCTLVTSSGAFQYWGQGTLVTVSSGGGGSGGGGSVSLTCLVKGFYPSDIAVEWESNGQPENNYKTTPPVLDSDGSFFLYSKLTVDKSRWQQGNVFSCSVMHEALHNHYTQKSLSLSPGK
light: DNVLTQSPATLSVSPGERATLSCKASQSVDFDGDSYMNWYQQKPGQPPRLLIYAASNLESGIPARFSGSGSGTDFTLTISSVEPEDFATYYCQQSNEDPPTFGGGTKVEIKRTVAAPSVFIFPPSDEQLKSGTASVVCLLNNFYPREAKVQWKVDNALQSGNSQESVTEQDSKDSTYSLSSTLTLSKADYEKHKVYACEVTHQGLSSPVTKSFNRGEC
notes: IgG1
B5: CT4-KN035-3A-knob-IgG1 (bispecific antibody)
heavy 1: EVQLVESGGGLVQPGGSLRLSCAASGFTFSSYTMSWVRQAPGKGLEWVATISRGGGYTSYPDSVKGRFTISRDNSKNTLYLQMNSLRAEDTAVYYCAREDYGSSYVHWFAYWGQGTLVTVSAASTKGPSVFPLAPSSKSTSGGTAALGCLVKDYFPEPVTVSWNSGALTSGVHTFPAVLQSSGLYSLSSVVTVPSSSLGTQTYICNVNHKPSNTKVDKKVEPKSCDKTHTCPPCPAPELLGGPSVFLFPPKPKDTLMISRTPEVTCVVVDVSHEDPEVKFNWYVDGVEVHNAKTKPREEQYNSTYRVVSVLTVLHQDWLNGKEYKCKVSNKALPAPIEKTISKAKGQPREPQVCTLPPSREEGGGGSGGGGSQVQLVESGGGLVQPGGSLRLSCAASGFTFSRRCMAWFRQAPGKERERVAKLLTTSGSTYLADSVKGRFTISRDNSKNTVYLQMNSLRAEDTAVYYCAADSFEDPTCTLVTSSGAFQYWGQGTLVTVSSGGGGSGGGGSVSLWCLVKGFYPSDIAVEWESNGQPENNYKTTPPVLDSDGSFFLYSKLTVDKSRWQQGNVFSCSVMHEALHNHYTQKSLSLSPGK
heavy 2: not shown
light: DIQMTQSPSFLSASVGDRVTITCRAGENIYSYLAWYQQKPGKAPKLLIYNARTLAEGVPSRFSGSGSGTEFTLTISSLQPEDFATYYCQHHYGSPRTFGGGTKLEIKRTVAAPSVFIFPPSDEQLKSGTASVVCLLNNFYPREAKVQWKVDNALQSGNSQESVTEQDSKDSTYSLSSTLTLSKADYEKHKVYACEVTHQGLSSPVTKSFNRGEC
notes: IgG1 with knobs-in-holes; KN035 on the knob chain only
B6: CT4-KN035-3A-hole-IgG1 (bispecific antibody)
heavy 1: EVQLVESGGGLVQPGGSLRLSCAASGFTFSSYTMSWVRQAPGKGLEWVATISRGGGYTSYPDSVKGRFTISRDNSKNTLYLQMNSLRAEDTAVYYCAREDYGSSYVHWFAYWGQGTLVTVSAASTKGPSVFPLAPSSKSTSGGTAALGCLVKDYFPEPVTVSWNSGALTSGVHTFPAVLQSSGLYSLSSVVTVPSSSLGTQTYICNVNHKPSNTKVDKKVEPKSCDKTHTCPPCPAPELLGGPSVFLFPPKPKDTLMISRTPEVTCVVVDVSHEDPEVKFNWYVDGVEVHNAKTKPREEQYNSTYRVVSVLTVLHQDWLNGKEYKCKVSNKALPAPIEKTISKAKGQPREPQVYTLPPSRCEGGGGSGGGGSQVQLVESGGGLVQPGGSLRLSCAASGFTFSRRCMAWFRQAPGKERERVAKLLTTSGSTYLADSVKGRFTISRDNSKNTVYLQMNSLRAEDTAVYYCAADSFEDPTCTLVTSSGAFQYWGQGTLVTVSSGGGGSGGGGSVSLSCAVKGFYPSDIAVEWESNGQPENNYKTTPPVLDSDGSFFLVSKLTVDKSRWQQGNVFSCSVMHEALHNHYTQKSLSLSPGK
heavy 2: not shown
light: DIQMTQSPSFLSASVGDRVTITCRAGENIYSYLAWYQQKPGKAPKLLIYNARTLAEGVPSRFSGSGSGTEFTLTISSLQPEDFATYYCQHHYGSPRTFGGGTKLEIKRTVAAPSVFIFPPSDEQLKSGTASVVCLLNNFYPREAKVQWKVDNALQSGNSQESVTEQDSKDSTYSLSSTLTLSKADYEKHKVYACEVTHQGLSSPVTKSFNRGEC
notes: IgG1 with knobs-in-holes; KN035 on the hole chain only; also called CT4-KN035-3A-kole

The term Kd denotes the equilibrium constant for the complex coming apart. Higher therefore signals lower affinity. As a reminder, the koff is the rate constant with which the complex falls apart. By kon is commonly meant a measure of how fast the partners come together.

human CD40 (hCD40-his), sequence (P25942 21-193 limits assumed): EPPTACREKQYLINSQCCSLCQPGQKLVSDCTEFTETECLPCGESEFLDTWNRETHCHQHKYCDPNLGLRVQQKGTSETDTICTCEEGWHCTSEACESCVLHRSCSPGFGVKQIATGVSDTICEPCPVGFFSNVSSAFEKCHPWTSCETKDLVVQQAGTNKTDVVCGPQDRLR

The first assay deals with human CD40 (hCD40-his) (human, UniProt P25942 21-193). Nature of the assay: SPR Biacore T200; binder captured on protein A chip, target as analyte. How it is done:
Binding affinity to human CD40 of the obtained fusion proteins PDL1-C40-6A7-FV3A (IgG1), PDL1-C40-6A7-FV3A-IgG4, PDL1-C40-6A7-FV3C (IgG1), PDL1-C40-6A7-FV3A1 (IgG1), PDL1-C40-6A7-FV3A2 (IgG1), and PDL1-C40-6A7-FV3A3 (IgG1) were determined by surface plasmon resonance (SPR) using Biacore™ T200 biosensor equipped with pre-immobilized protein A sensor chips. The original anti-CD40 monoclonal antibody C40-6A7 IgG2 (6A7, VH SEQ ID NO: 91, VL SEQ ID NO: 92), which the scFV was derived from, was used as a control.
For the molecule B1, binding was put at a Kd of 1.04 nM, the koff came to 0.000379 s⁻¹ and the kon is 364000 M⁻¹ s⁻¹.
Turning to B2, binding was characterised by a dissociation constant (Kd) of 1.09 nM, the koff turned out to be 0.000427 s⁻¹ and the kon was found to be 391000 M⁻¹ s⁻¹.
B3: binding was put at a Kd of 0.865 nM, the koff turned out to be 0.000472 s⁻¹ and the kon came to 546000 M⁻¹ s⁻¹.

In a further assay the target is T1, 6×Histidine-tagged human PD-L1 protein (hPDL1-His) (human, UniProt Q9NZQ7 19-238).
T1 construct: also called hPL1-His; His-tagged human PD-L1
T1 sequence (Q9NZQ7 19-238 limits assumed): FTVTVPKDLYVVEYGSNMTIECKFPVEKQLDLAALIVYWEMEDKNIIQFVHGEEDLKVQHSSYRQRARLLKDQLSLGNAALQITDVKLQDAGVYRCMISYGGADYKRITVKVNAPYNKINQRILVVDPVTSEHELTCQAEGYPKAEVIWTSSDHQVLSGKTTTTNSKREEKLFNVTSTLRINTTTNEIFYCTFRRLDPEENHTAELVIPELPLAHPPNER
Described as above. How it is done:
Binding affinities of the fusion proteins against human CTLA4 (hCTLA4-His) or human PD-L1 (hPDL1) were measured by surface plasmon resonance (SPR) using Biacore™ T200 biosensor equipped with pre-immobilized protein A sensor chips. A CTLA4 antibody CT4-4G12-IgG1 (CT4) was used as a control. ATOR1015-CD86 (CD86) and KN035-IgG1 (with D265A mutation in heavy chain constant domain) were also used as controls.
B4 registered a Kd of 14.1 nM, a koff of 0.00687 s⁻¹ and a kon of 487000 M⁻¹ s⁻¹.
Take B5: binding was put at a Kd of 11.7 nM, the koff came to 0.00231 s⁻¹ and the kon was determined as 197000 M⁻¹ s⁻¹.
Take B6: binding was characterised by a dissociation constant (Kd) of 20.4 nM, the koff amounted to 0.0019 s⁻¹ and the kon worked out at 92700 M⁻¹ s⁻¹.
